Consider 2 variants from article PMC12543280.

The labels stand for the following.
B1: C. elegans APE-1 (sole ASPP homolog), endogenous, tagged with GFP and 3xflag [C. elegans] / C. elegans GSP-2 (PP1 homolog), endogenously HaloTagged [modified: JF646 dye on the HaloTag (single-molecule assay); JFX646 dye on the … (parent)
chain 1: MVTTSSGGGIGYPANNGVTQVSLIHSSDSVRTVSTAPIYRPTSSMASTMAHKSSTAPFISANQRMSKPPVRVVAQPPPPHPQALSQQYHQQNPMMMYSAPNTRPHVIPTMQVQPTMAAQIKRNNPVNAQFQNPSEMIADYGVKPQSVEMVQRVRAVRRQVADEETELRRLRELEHETAQLQNKNYGRERELNVQGSMLKEAQLELRNASMRAQSLNKHLEEMYRRRQTAAAAALVEQRKMQQHQILLARAANQVSTQEVIRPRASVEPFQVNNTQQQQPSPQMMKSEEFSEKRDLNGQTGSYDAIDGSGDHQKIPTEPSYLAPCKENQQKYSELSKMASTDPHSNHSSPSTSSQKAPTLITFSPPSFEQKINSSTMTRDSPFVERPTSFGDSLDESRLRSGKTDLVSLRSDSLKATKRRSWAASEGTSMSEAEMIHRLLDEQRRGRSHFIPQLPTSQEEPSAITSETYAEEVVNSESKQVATSSDSTNNLELPTEQMVLGSDTTTEEDASSCSTRSDDGQNLEMEVAIERRTVKGILRRPNEKMNKGRIEFDPLALLLDAALEGELDLVRSSASKLTDVSQANDEGITALHNAICAGHYEIVRFLIENDADVNAQDSDGWTPLHCAASCNNLPMVRQLVEGGGCVLASTLSDMETPVEKCEEDEDGYDGCLKYLSAAHNSTGSINTGKVYAAYGYEAAFEDELSFDAGDELTVIEKDKVDKNWWTCEKNNGEKGQVPRTYLALYPSLKYRKKLNFVMFDLPLESNNNVE
chain 2: MDVEKLNLDNIISRLLEVRGSKPGKNVQLTESEIKGLCQKSREIFLSQPILLELEAPLKICGDVHGQYYDLLRLFEYGGFPPESNYLFLGDYVDRGKQSLETICLLLAYKIKYPENFFLLRGNHECASINRIYGFYDECKRRYNIKLWKTFTDCFNCLPVAAIIDEKIFCCHGGLSPDLQSMEQIRRIMRPTDVPDQGLLCDLLWSDPDKDVTGWGENDRGVSFTFGPEVVAKFLHKHDLDLICRAHQVVEDGYEFFAKRQLVTLFSAPNYCGEFDNAGSMMTVDETLMCSFQILKPADKKKYPYGAGGVGSNRPVTPPRNAPAAQPKKGAKK

Test [1] covers variants of B1. The test is described as follows: single-molecule photobleaching analysis by TIRF microscopy. Particulars: with C. elegans GSP-2 (PP1 homolog).
The variants in test [2] derive from B1. In words: MudPIT analysis of 3xflag immunoprecipitations from whole-worm lysates. Particulars: with C. elegans GSP-2 (PP1 homolog) in whole-worm lysates of the MudPIT experiment [C. elegans (endogenous in whole worms)]; for response (% of total protein): parent: 10.8; for screen value: parent: 20.

On to chain 1 H591Y, for which the screen value in test [1] (p=0.531 vs APE-1, read off a plot) stood at 37%; in test [2] it was 7. The response (% of total protein) in test [2] (bait recovered in same sample: 0.12 % of total protein (wild-type bait 0.54)) came out at 0.87.

With chain 1 N583K, the screen value in test [1] (p = 0.008 vs APE-1, read off a plot) came out at 34%; in test [2], 4. Besides, the response (% of total protein) in test [2] (bait recovered in same sample: 0.22 % of total protein (wild-type bait 0.54)) is 0.87.
